Reference: US20200317768A1 (published 2020)

T1: human FcγRIIaH extracellular domain, C-terminal His-tag (human, UniProt P12318 34-217)
T1 construct: also called human FcγRIIa (type H); FcgRIIaH; not shown: His-tag added to C-terminus
T1 sequence: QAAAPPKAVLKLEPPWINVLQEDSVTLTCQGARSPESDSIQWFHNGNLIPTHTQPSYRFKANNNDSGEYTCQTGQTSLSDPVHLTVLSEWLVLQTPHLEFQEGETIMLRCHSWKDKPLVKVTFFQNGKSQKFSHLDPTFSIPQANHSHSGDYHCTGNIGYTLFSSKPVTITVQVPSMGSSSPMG

T2: cynomolgus monkey FcγRIIa2 extracellular domain, C-terminal His-tag (cynomolgus monkey)
T2 construct: also called cyno FcγRIIa2; cynoFcgRIIa2; not shown: His-tag added to C-terminus
T2 chain: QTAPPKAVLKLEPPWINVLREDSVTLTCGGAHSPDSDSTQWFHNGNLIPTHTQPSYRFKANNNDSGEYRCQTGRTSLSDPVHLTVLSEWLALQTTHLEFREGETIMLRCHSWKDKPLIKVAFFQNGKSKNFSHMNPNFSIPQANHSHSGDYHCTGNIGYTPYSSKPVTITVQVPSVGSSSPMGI

T3: human FcγRIIaR extracellular domain, C-terminal His-tag (human, UniProt P12318 34-217)
T3 construct: also called human FcγRIIa (type R); FcgRIIaR; not shown: His-tag added to C-terminus
T3 chain: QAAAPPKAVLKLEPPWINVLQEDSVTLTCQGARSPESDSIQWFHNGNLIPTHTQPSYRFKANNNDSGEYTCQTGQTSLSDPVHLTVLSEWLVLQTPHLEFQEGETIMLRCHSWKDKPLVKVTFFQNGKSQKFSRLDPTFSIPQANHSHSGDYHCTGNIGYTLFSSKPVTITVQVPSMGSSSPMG

T4: cynomolgus monkey FcγRIIa3 extracellular domain, C-terminal His-tag (cynomolgus monkey)
T4 construct: also called cyno FcγRIIa3; cynoFcgRIIa3; not shown: His-tag added to C-terminus
T4 chain: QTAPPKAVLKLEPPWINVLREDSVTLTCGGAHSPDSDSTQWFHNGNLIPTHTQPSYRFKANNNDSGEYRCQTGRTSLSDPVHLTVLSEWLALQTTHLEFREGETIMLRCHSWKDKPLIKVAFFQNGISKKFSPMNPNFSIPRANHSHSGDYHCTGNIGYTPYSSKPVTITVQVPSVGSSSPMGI

T5: cynomolgus monkey FcγRIIa1 extracellular domain, C-terminal His-tag (cynomolgus monkey)
T5 construct: also called cyno FcγRIIa1; cynoFcgRIIa1; not shown: His-tag added to C-terminus
T5 chain: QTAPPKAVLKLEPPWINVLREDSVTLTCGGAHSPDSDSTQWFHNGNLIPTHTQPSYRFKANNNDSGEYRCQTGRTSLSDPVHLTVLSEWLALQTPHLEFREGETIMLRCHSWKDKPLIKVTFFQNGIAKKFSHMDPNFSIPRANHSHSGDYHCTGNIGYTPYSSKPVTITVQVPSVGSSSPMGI

T6: human FcγRIIb extracellular domain, C-terminal His-tag (human, UniProt P31994 43-217)
T6 construct: also called FcgRIIb (human); not shown: His-tag added to C-terminus
T6 sequence: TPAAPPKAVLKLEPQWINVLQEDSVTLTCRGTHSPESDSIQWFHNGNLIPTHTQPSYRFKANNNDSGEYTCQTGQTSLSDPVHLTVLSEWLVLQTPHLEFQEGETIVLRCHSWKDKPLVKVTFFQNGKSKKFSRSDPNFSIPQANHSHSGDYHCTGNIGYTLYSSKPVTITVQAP


Legend:
Assay in all cases: SPR (Biacore), antibody captured, FcgR analyte, 25 C
[1] = biological target: T1, human FcγRIIaH extracellular domain, …
[2] = biological target: T2, cynomolgus monkey FcγRIIa2 …
[3] = biological target: T3, human FcγRIIaR extracellular domain, …
[4] = biological target: T4, cynomolgus monkey FcγRIIa3 …
[5] = biological target: T7, human FcγRIIIaV extracellular domain, C-terminal His-tag (human, UniProt P08637 17-208)
T7 construct: also called FcgRIIIaV; not shown: His-tag added to C-terminus

[6] = biological target: T5, cynomolgus monkey FcγRIIa1 …
[7] = biological target: T6, human FcγRIIb extracellular domain, …

T7 sequence (P08637 17-208 F176V): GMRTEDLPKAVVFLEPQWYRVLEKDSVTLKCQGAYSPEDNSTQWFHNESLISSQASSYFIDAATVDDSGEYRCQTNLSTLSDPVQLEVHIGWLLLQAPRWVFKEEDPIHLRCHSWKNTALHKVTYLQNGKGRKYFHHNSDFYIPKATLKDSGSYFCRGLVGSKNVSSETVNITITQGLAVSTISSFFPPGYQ

Binder	Kd [1]	Kd [2]	Kd [3]	Kd [4]	Kd [5]	Kd [6]	Kd [7]
MS_M103205H795-SG1/M103202L889-SK1 (antibody, human IgG1, kappa, Parent antibody; also called MS1032LO06-SG1) heavy: not shown light: DIVMTQSPATLSLSPGERATLSCTSSQSVYHANWLSWFQQKPGQPPKLLIYWASTLAYGVPSRFSGSGSGTDFTLTISSLQPEDAATYYCAGGYGGGRYAFGQGTKVEIKRTVAAPSVFIFPPSDEQLKSGTASVVCLLNNFYPREAKVQWKVDNALQSGNSQESVTEQDSKDSTYSLSSTLTLSKADYEKHKVYACEVTHQGLSSPVTKSFNRGEC	690 nM	5100 nM	1100 nM	17000 nM	810 nM	3200 nM	4600 nM
M103205H795-MY143/M103202L889-SK1 (antibody, human IgG1, kappa) heavy: QVTLKESGPVLVKPTETLTLTCTVSGIDLSHDDISWVRQAPGKGLEWVGIISYAGSTYYASWAKGRLTISKDTSKNQVVLTMTNMDPVDTATYYCARGVPAYSHGGDLWGQGTLVTVSSASTKGPSVFPLAPSSKSTSGGTAALGCLVKDYFPEPVTVSWNSGALTSGVHTFPAVLQSSGLYSLSSVVTVPSSSLGTQTYICNVNHKPSNTKVDKKVEPKSCDKTHTCPPCPAPELLSGPSVFLFPPKPKDTLMISRTPEVTCVVVDVSEEDPEVKFNWYVDGVEVHNAKTKPREEQYNSTYRVVSVLTVLHQDWLNGKEYKCKVSNKALPAPIEKTISKAKGQPREPQVYTLPPSREEMTKNQVSLTCLVKGFYPSDIAVEWESNGQPENNYKTTPMVLDSDGSFFLYSKLTVDKSRWQQGNVFSCSVMHEALHNHYTQKSLSLSP light: DIVMTQSPATLSLSPGERATLSCTSSQSVYHANWLSWFQQKPGQPPKLLIYWASTLAYGVPSRFSGSGSGTDFTLTISSLQPEDAATYYCAGGYGGGRYAFGQGTKVEIKRTVAAPSVFIFPPSDEQLKSGTASVVCLLNNFYPREAKVQWKVDNALQSGNSQESVTEQDSKDSTYSLSSTLTLSKADYEKHKVYACEVTHQGLSSPVTKSFNRGEC	37 nM	1300 nM	83 nM	2900 nM	1500 nM	1100 nM	680 nM
M103205H795-MY142/M103202L889-SK1 (antibody, human IgG1, kappa) heavy: QVTLKESGPVLVKPTETLTLTCTVSGIDLSHDDISWVRQAPGKGLEWVGIISYAGSTYYASWAKGRLTISKDTSKNQVVLTMTNMDPVDTATYYCARGVPAYSHGGDLWGQGTLVTVSSASTKGPSVFPLAPSSKSTSGGTAALGCLVKDYFPEPVTVSWNSGALTSGVHTFPAVLQSSGLYSLSSVVTVPSSSLGTQTYICNVNHKPSNTKVDKKVEPKSCDKTHTCPPCPAPELLEGPSVFLFPPKPKDTLMISRTPEVTCVVVDVSEEDPEVKFNWYVDGVEVHNAKTKPREEQYNSTYRVVSVLTVLHQDWLNGKEYKCKVSNKALPAPIEKTISKAKGQPREPQVYTLPPSREEMTKNQVSLTCLVKGFYPSDIAVEWESNGQPENNYKTTPMVLDSDGSFFLYSKLTVDKSRWQQGNVFSCSVMHEALHNHYTQKSLSLSP light: DIVMTQSPATLSLSPGERATLSCTSSQSVYHANWLSWFQQKPGQPPKLLIYWASTLAYGVPSRFSGSGSGTDFTLTISSLQPEDAATYYCAGGYGGGRYAFGQGTKVEIKRTVAAPSVFIFPPSDEQLKSGTASVVCLLNNFYPREAKVQWKVDNALQSGNSQESVTEQDSKDSTYSLSSTLTLSKADYEKHKVYACEVTHQGLSSPVTKSFNRGEC	190 nM	4900 nM	170 nM	25000 nM	530 nM	4100 nM	950 nM

Continued, values first:

Kd [1]	Kd [2]	Kd [3]	Kd [4]	Kd [5]	Kd [6]	Kd [7]	Binder
2200 nM	3300 nM	100 nM	–	140000 nM	3000 nM	300 nM	M103205H795-MY228/M103202L889-SK1 (antibody, human IgG1, kappa) heavy: QVTLKESGPVLVKPTETLTLTCTVSGIDLSHDDISWVRQAPGKGLEWVGIISYAGSTYYASWAKGRLTISKDTSKNQVVLTMTNMDPVDTATYYCARGVPAYSHGGDLWGQGTLVTVSSASTKGPSVFPLAPSSKSTSGGTAALGCLVKDYFPEPVTVSWNSGALTSGVHTFPAVLQSSGLYSLSSVVTVPSSSLGTQTYICNVNHKPSNTKVDKKVEPKSCDKTHTCPPCPAPELLGYPSVFLFPPKPKDTLMISRTPEVTCVVVDVSDEDPEVKFNWYVDGVEVHNAKTKPREELYNSTYRVVSVLTVLHQDWLNGKEYKCKVSNKALPKPIEKTISKAKGQPREPQVYTLPPSREEMTKNQVSLTCLVKGFYPSDIAVEWESNGQPENNYKTTPPVLDSDGSFFLYSKLTVDKSRWQQGNVFSCSVMHEALHNHYTQKSLSLSP light: DIVMTQSPATLSLSPGERATLSCTSSQSVYHANWLSWFQQKPGQPPKLLIYWASTLAYGVPSRFSGSGSGTDFTLTISSLQPEDAATYYCAGGYGGGRYAFGQGTKVEIKRTVAAPSVFIFPPSDEQLKSGTASVVCLLNNFYPREAKVQWKVDNALQSGNSQESVTEQDSKDSTYSLSSTLTLSKADYEKHKVYACEVTHQGLSSPVTKSFNRGEC
980 nM	2200 nM	81 nM	1900 nM	–	1500 nM	150 nM	M103205H795-MY229/M103202L889-SK1 (antibody, human IgG1, kappa) heavy: QVTLKESGPVLVKPTETLTLTCTVSGIDLSHDDISWVRQAPGKGLEWVGIISYAGSTYYASWAKGRLTISKDTSKNQVVLTMTNMDPVDTATYYCARGVPAYSHGGDLWGQGTLVTVSSASTKGPSVFPLAPSSKSTSGGTAALGCLVKDYFPEPVTVSWNSGALTSGVHTFPAVLQSSGLYSLSSVVTVPSSSLGTQTYICNVNHKPSNTKVDKKVEPKSCDKTHTCPPCPAPELLGYPSVFLFPPKPKDTLMISRTPEVTCVVVDVSDEDPEVKFNWYVDGVEVHNAKTKPREELYNSTYRVVSVLTVLHQDWLNGKEYKCKVSNKALPKPIEKTISKAKGQPREPQVYTLPPSREEMTKNQVSLTCLVKGFYPSDIAVEWESNGQPENNYKTTPKVLDSDGSFFLYSKLTVDKSRWQQGNVFSCSVMHEALHNHYTQKSLSLSP light: DIVMTQSPATLSLSPGERATLSCTSSQSVYHANWLSWFQQKPGQPPKLLIYWASTLAYGVPSRFSGSGSGTDFTLTISSLQPEDAATYYCAGGYGGGRYAFGQGTKVEIKRTVAAPSVFIFPPSDEQLKSGTASVVCLLNNFYPREAKVQWKVDNALQSGNSQESVTEQDSKDSTYSLSSTLTLSKADYEKHKVYACEVTHQGLSSPVTKSFNRGEC
570 nM	630 nM	830 nM	1900 nM	14000 nM	630 nM	500 nM	M103205H795-MY209/M103202L889-SK1 (antibody, human IgG1, kappa) heavy: QVTLKESGPVLVKPTETLTLTCTVSGIDLSHDDISWVRQAPGKGLEWVGIISYAGSTYYASWAKGRLTISKDTSKNQVVLTMTNMDPVDTATYYCARGVPAYSHGGDLWGQGTLVTVSSASTKGPSVFPLAPSSKSTSGGTAALGCLVKDYFPEPVTVSWNSGALTSGVHTFPAVLQSSGLYSLSSVVTVPSSSLGTQTYICNVNHKPSNTKVDKKVEPKSCDKTHTCPPCPAPELLNGPSVFLFPPKPKDTLMISRTPEVTCVVVDVSDEDPEVKFNWYVDGVEVHNAKTKPREELYNSTYRVVSVLTVLHQDWLNGKEYKCKVSNTALPKPIEKTISKAKGQPREPQVYTLPPSREEMTKNQVSLTCLVKGFYPSDIAVEWESNGQPENNYKTTPPVLDSDGSFFLYSKLTVDKSRWQQGNVFSCSVMHEALHNHYTQKSLSLSP light: DIVMTQSPATLSLSPGERATLSCTSSQSVYHANWLSWFQQKPGQPPKLLIYWASTLAYGVPSRFSGSGSGTDFTLTISSLQPEDAATYYCAGGYGGGRYAFGQGTKVEIKRTVAAPSVFIFPPSDEQLKSGTASVVCLLNNFYPREAKVQWKVDNALQSGNSQESVTEQDSKDSTYSLSSTLTLSKADYEKHKVYACEVTHQGLSSPVTKSFNRGEC
